Measurements reported in patent US20220251194A1 (Merck Sharp & Dohme, published 2022).

Columns and labels:
[1] = target: T1, polyhistidine-tagged human PD-1 (hPD1-His, 98AFK) (human, UniProt Q15116 25-167, limits assumed); assay: SPR (Biacore T200), mAb captured on anti-Fc chip, hPD1-His as analyte
T1 construct: also called human PD1-His; Human PD-1-His
Method: (§1) A surface plasmon resonance (SPR)-based assay utilizing capture mode was used to determine the binding kinetics and affinities of anti-PD-1 antibodies against polyhistidine-tagged human PD-1 (hPD1-His, 98AFK). Following manufacture instructions, a series S sensor chip CM5 (GE Healthcare, BR100530) was activated using an amine-coupling kit (GE Healthcare, BR100050). Either human capture kit (anti-human Fc, 25 μg/mL, GE Healthcare, BR100839) or mouse capture kit (anti-mouse Fc, 30 μg/mL, GE Healthcare, BR100838) antibody diluted in the supplied pH 5.0, 10 mM sodium acetate buffer was immobilized onto the activated surface for 7 minutes. After immobilization, surfaces were deactivated with 1M ethanolamine/HCl (pH 8.5) for 7 minutes.
(§2) Binding kinetics were measured on a biacore T200 in HBS-EP+ (0.01 M HEPES pH 7.4, 0.15 M NaCl, 3 mM EDTA, 0.05% v/v Surfactant P20) running buffer at 25° C. Antibodies were captured either on mouse or human Fc capture surfaces at 10 μL/min flow rate. Antibodies were captured on flow cells 2, 3 and 4. Flow cell 1 was used as a reference with no antibody captured. A 6-point, 2-fold serial dilutions of the analyte 98AFK (hPD1-His), starting at 20 nM, were prepared in the running buffer (HBS-EP+). Two buffer blanks were included for double referencing. Titration series were injected for 3 minutes at 50 μl/min followed by 600 seconds of dissociation. After each cycle, surfaces were regenerated with a 30 second injection of 3M MgCl₂ at […] on the anti-human Fc chip or 180 seconds of 10 mM Glycine pH 1.7 at 10 μl/min on the anti-mouse Fc chip.
(§3) Sensorgram processing and data analysis were performed with Biacore T200 Evaluation Software Version 2.0.4 (GE Healthcare). […] Processed curves were globally fitted to a 1:1 binding model to determine the association rate constant, kₒₙ (M⁻¹s⁻¹, where “M” equals molar and “s” equals seconds) and the dissociation rate constant, koff (s⁻¹). These rate constants were used to calculate the equilibrium dissociation constant, KD (M)=koff/kₒₙ.

[2] = target: T1, polyhistidine-tagged human PD-1 …; assay: SPR (Biacore T200), mAb captured on anti-Fc chip; reference Mouse 08A
Method: as §1, §2, §3

[3] = target: T2, recombinant human or cyno PD-1 (immobilized onto CM5 chip, Example 1) (human or cyno ( which was …, UniProt Q15116 25-167, limits assumed)); assay: SPR (Biacore T200), PD-1 immobilized on CM5 chip, Fab as analyte
T2 construct: also called antigen
T2 sequence (Q15116 25-167 limits assumed): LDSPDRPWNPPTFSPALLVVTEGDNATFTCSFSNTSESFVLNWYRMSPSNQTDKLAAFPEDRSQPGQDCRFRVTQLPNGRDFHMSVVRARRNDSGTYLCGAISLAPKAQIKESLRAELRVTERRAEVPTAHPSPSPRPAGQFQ
Method: Immobilization of recombinant human or cyno PD-1 onto CM5 chip: A CM5 sensor chip was activated in FC2 by 7-min. injection (10 μl/min.) of freshly prepared 1:1 50 mM NHS: 200 mM EDC. PD-1 at a concentration of 0.2 μg/ml in 10 mM sodium acetate buffer pH 5.0 was injected onto the activated chip at 5 μl/min. (HBS-EP running buffer: 10 mM HEPES, 150 mM NaCl, 3.4 mM EDTA, 0.005% surfactant P20, pH 7.4) for 120 seconds. The remaining active coupling sites were blocked with 7 min. injection of 1M ethanolamine at 10 μl/min.
Binding kinetics measurement: Various concentrations of the Fabs were injected with a flow rate of 30 μl/min for 180 seconds(s) during the association phase. The dissociation of bound antibody was monitored by flowing HBS-EP buffer over the chip surface for 600 seconds. At the end of each cycle, the sensor surfaces were regenerated by injecting regeneration buffer (10 mM glycine buffer with pH 1.7) for 180 seconds. After sensograms were corrected for signals from a reference flow, kinetics were calculated with BIACORE T 200 evaluation software ver.1.0 (Biacore, GE, USA).

T1 sequence (Q15116 25-167 limits assumed): as above

Kd [1] [nM]	KD (REF)/KD [2]	Kd [3] [nM]	Binder
0.46	0.5		Mouse 09A (antibody, mouse IgG1, kappa, V domains shown, Mouse IgG1 / kappa; also called 03AFN; Mouse x [PD-1_H] mAb (clone 09A) IgG1 / Kappa) VH: QVQLQQPGAELVKPGTSVKLSCKASGYTFTNYYMYWVKQRPGQGLEWIGGINPSNGGTNFNEKFKNKATLTVDSSSSTTYMQLSSLTSEDSAVYYCTRRDYRFDMGFDYWGQGTTLTVSS VL: DIVLTQSPASLAVSLGQRAAISCRASKGVSTSGYSYLHWYQQKPGQSPKLLIYLASYLESGVPARFSGSGSGTDFTLNIHPVEEEDAATYYCQHSRDLPLTFGTGTKLELKR
0.24	1		Mouse 08A (REF) (antibody, mouse IgG1, kappa, V domains shown, Mouse IgG1 / kappa; also called 09AFF; parental mouse 08A antibody) VH: QVQLQQPGAELVKPGASVKLSCKASGYTFTSYYLYWMKQRPGQGLEWIGGVNPSNGGTNFSEKFKSKATLTVDKSSSTAYMQLSSLTSEDSAVYYCTRRDSNYDGGFDYWGQGTTLTVSS VL: DIVLTQSPTSLAVSLGQRATISCRASKSVSTSGFSYLHWYQQKPGQPPKLLIFLASNLESGVPARFSGSGSGTDFTLNIHPVEEEDAATYYCQHSWELPLTFGAGTKLELKR
5.9	0.03		Mouse 08A N59E (antibody, mouse IgG1, kappa, V domains shown, Mouse IgG1 / kappa; also called 39AFL; Mouse x [PD-1_H] mAb (Clone 1.08 N59E) IgG1 / Kappa) VH: QVQLQQPGAELVKPGASVKLSCKASGYTFTSYYLYWMKQRPGQGLEWIGGVNPSNGGTEFSEKFKSKATLTVDKSSSTAYMQLSSLTSEDSAVYYCTRRDSNYDGGFDYWGQGTTLTVSS VL: DIVLTQSPTSLAVSLGQRATISCRASKSVSTSGFSYLHWYQQKPGQPPKLLIFLASNLESGVPARFSGSGSGTDFTLNIHPVEEEDAATYYCQHSWELPLTFGAGTKLELKR
9.6	0.04		Mouse 08A N59Q (antibody, mouse IgG1, kappa, V domains shown, Mouse IgG1 / kappa; also called 38AFL; Mouse x [PD-1_H] mAb (Clone 1.08 N59Q) IgG1 / Kappa) VH: QVQLQQPGAELVKPGASVKLSCKASGYTFTSYYLYWMKQRPGQGLEWIGGVNPSNGGTQFSEKFKSKATLTVDKSSSTAYMQLSSLTSEDSAVYYCTRRDSNYDGGFDYWGQGTTLTVSS VL: DIVLTQSPTSLAVSLGQRATISCRASKSVSTSGFSYLHWYQQKPGQPPKLLIFLASNLESGVPARFSGSGSGTDFTLNIHPVEEEDAATYYCQHSWELPLTFGAGTKLELKR
0.59	0.4		Mouse 08A N59A (antibody, mouse IgG1, kappa, V domains shown, Mouse IgG1 / kappa; also called 80AFH; Mouse x [PD-1_H] mAb (Clone 1.08 N59A) IgG1 / Kappa) VH: QVQLQQPGAELVKPGASVKLSCKASGYTFTSYYLYWMKQRPGQGLEWIGGVNPSNGGTAFSEKFKSKATLTVDKSSSTAYMQLSSLTSEDSAVYYCTRRDSNYDGGFDYWGQGTTLTVSS VL: DIVLTQSPTSLAVSLGQRATISCRASKSVSTSGFSYLHWYQQKPGQPPKLLIFLASNLESGVPARFSGSGSGTDFTLNIHPVEEEDAATYYCQHSWELPLTFGAGTKLELKR
		0.031	Fab 098 (Fab, V domains shown, also called Fab98) VH: EVQLVQSGAEVKKPGASVKVSCKASGYTFTSYYLYWVRQAPGQGLEWIGGVNPSNGGTNFNEKFKSRVTLTVDTSISTAYMELSRLRSDDTAVYYCTRRLSHYDGGFDYWGQGTTVTVSS VL: DIVMTQTPLSLSVTPGQPASISCRASKSVSTSGFSYLHWYLQKPGQPPQLLIFLGKFRESGVPDRFSGSGSGTDFTLKISRVEAEDVGVYYCQHSWELPLTFGQGTKLEIKR
0.3	0.8		Humanized 08A IgG4 S61N N55E (antibody, V domains shown, IgG4 S228P / kappa; also called 50AQK; Humanized x [PD-1_H] mAb (08A/HuPD1A-11 N55E S228P) IgG4 / Kappa) VH: EVQLVQSGAEVKKPGASVKVSCKASGYTFTSYYLYWVRQAPGQGLEWIGGVNPSEGGTNFNEKFKSRVTLTVDTSISTAYMELSRLRSDDTAVYYCTRRDSNYDGGFDYWGQGTTVTVSS VL: DIVMTQTPLSLSVTPGQPASISCRASKSVSTSGFSYLHWYLQKPGQPPQLLIFLASNLESGVPDRFSGSGSGTDFTLKISRVEAEDVGVYYCQHSWELPLTFGQGTKLEIKR
0.14	1.7		Humanized 08A IgG4 (antibody, V domains shown, IgG4 S228P / kappa; also called 73AGG; Humanized x [PD-1_H] mAb (08A/HuPD1A-11 S228P) IgG4 / Kappa) VH: EVQLVQSGAEVKKPGASVKVSCKASGYTFTSYYLYWVRQAPGQGLEWIGGVNPSNGGTNFSEKFKSRVTLTVDTSISTAYMELSRLRSDDTAVYYCTRRDSNYDGGFDYWGQGTTVTVSS VL: DIVMTQTPLSLSVTPGQPASISCRASKSVSTSGFSYLHWYLQKPGQPPQLLIFLASNLESGVPDRFSGSGSGTDFTLKISRVEAEDVGVYYCQHSWELPLTFGQGTKLEIKR
		0.034	Fab 099 (Fab, V domains shown) VH: EVQLVQSGAEVKKPGASVKVSCKASGYTFTSYYLYWVRQAPGQGLEWIGGVNPSNGGTNFNEKFKSRVTLTVDTSISTAYMELSRLRSDDTAVYYCTRRLSHYDGGFDYWGQGTTVTVSS VL: DIVMTQTPLSLSVTPGQPASISCRASKSVSTSGFSYLHWYLQKPGQPPQLLIFLGTHRASGVPDRFSGSGSGTDFTLKISRVEAEDVGVYYCQHSWELPLTFGQGTKLEIKR
		0.042	Fab 102 (Fab, V domains shown) VH: EVQLVQSGAEVKKPGASVKVSCKASGYTFTSYYLYWVRQAPGQGLEWIGGVNPSNGGTNFNEKFKSRVTLTVDTSISTAYMELSRLRSDDTAVYYCTRRLSHYDGGFDYWGQGTTVTVSS VL: DIVMTQTPLSLSVTPGQPASISCRASKSVSTSGFSYLHWYLQKPGQPPQLLIFLGHFASSGVPDRFSGSGSGTDFTLKISRVEAEDVGVYYCQHSWELPLTFGQGTKLEIKR
		0.024	Fab 100 (Fab, V domains shown) VH: EVQLVQSGAEVKKPGASVKVSCKASGYTFTSYYLYWVRQAPGQGLEWIGGVNPSNGGTNFNEKFKSRVTLTVDTSISTAYMELSRLRSDDTAVYYCTRRLSHYDGGFDYWGQGTTVTVSS VL: DIVMTQTPLSLSVTPGQPASISCRASKSVSTSGFSYLHWYLQKPGQPPQLLIFLSKYRSSGVPDRFSGSGSGTDFTLKISRVEAEDVGVYYCSQAYHLPLTFGQGTKLEIKR
		0.028	Fab 103 (Fab, V domains shown) VH: EVQLVQSGAEVKKPGASVKVSCKASGYTFTSYYLYWVRQAPGQGLEWIGGVNPSNGGTNFNEKFKSRVTLTVDTSISTAYMELSRLRSDDTAVYYCTRRLSHYDGGFDYWGQGTTVTVSS VL: DIVMTQTPLSLSVTPGQPASISCRASKSVSTSGFSYLHWYLQKPGQPPQLLIFLGRYLQSGVPDRFSGSGSGTDFTLKISRVEAEDVGVYYCQHSWELPLTFGQGTKLEIKR
0.045	5.2		Humanized 08A IgG4 S61N (lot 67AGG) (antibody, IgG4 S228P / kappa; Differs from lot 98AIO by an HFR4 mutation; also called Humanized x [PD-1_H] mAb (08A/HuPD1A-11 S61N WT) S228P IgG4 / Kappa, with HFR4 mutation) heavy: not shown light: DIVMTQTPLSLSVTPGQPASISCRASKSVSTSGFSYLHWYLQKPGQPPQLLIFLASNLESGVPDRFSGSGSGTDFTLKISRVEAEDVGVYYCQHSWELPLTFGQGTKLEIKRTVAAPSVFIFPPSDEQLKSGTASVVCLLNNFYPREAKVQWKVDNALQSGNSQESVTEQDSKDSTYSLSSTLTLSKADYEKHKVYACEVTHQGLSSPVTKSFNRGEC
		0.029	Fab 101 (Fab, V domains shown) VH: EVQLVQSGAEVKKPGASVKVSCKASGYTFTSYYLYWVRQAPGQGLEWIGGVNPSNGGTNFNEKFKSRVTLTVDTSISTAYMELSRLRSDDTAVYYCTRRLSHYDGGFDYWGQGTTVTVSS VL: DIVMTQTPLSLSVTPGQPASISCRASKSVSTSGFSYLHWYLQKPGQPPQLLIFLGKYGASGVPDRFSGSGSGTDFTLKISRVEAEDVGVYYCAQATQLPLTFGQGTKLEIKR
		0.052	Fab 104 (Fab, V domains shown) VH: EVQLVQSGAEVKKPGASVKVSCKASGYTFTSYYLYWVRQAPGQGLEWIGGVNPSNGGTNFNEKFKSRVTLTVDTSISTAYMELSRLRSDDTAVYYCTRRLSHYDGGFDYWGQGTTVTVSS VL: DIVMTQTPLSLSVTPGQPASISCRASKSVSTSGFSYLHWYLQKPGQPPQLLIFLGTHSVSGVPDRFSGSGSGTDFTLKISRVEAEDVGVYYCQHSWELPLTFGQGTKLEIKR
